Experiment [1] addresses syntaxin4 (UniProt P70452). Description: Munc18c IP, syntaxin4 blot. The note with it: reference: wild type Munc18c (WT and R cells), insulin.
In experiment [2] the target is syntaxin4 (UniProt P70452). Description: syntaxin4 IP, Munc18c blot (reciprocal). The note with it: reference: wild type Munc18c (WT and R cells), insulin.

As for “Munc18c (from UniProt Q60770) Y218/219F, insulin”, the “binding against the reference” value with syntaxin4 [1] (sites Y218,Y219) and in the experiment with syntaxin4 [2] (sites Y218,Y219) was “stronger” each time.

Regarding “Munc18c (from UniProt Q60770) Y521F, insulin”, the “binding against the reference” value with syntaxin4 [1] (sites Y521) and with syntaxin4 [2] (sites Y521) was “stronger” each time.

The record behind these values is publication PMC3751566.
